This assay has as its target RTX751 (ACT residues 751–1706) (Bordetella pertussis, UniProt P0DKX7 751-1706). Put plainly: SPR.

RTX751 (ACT residues 751–1706), sequence (P0DKX7 751-1706): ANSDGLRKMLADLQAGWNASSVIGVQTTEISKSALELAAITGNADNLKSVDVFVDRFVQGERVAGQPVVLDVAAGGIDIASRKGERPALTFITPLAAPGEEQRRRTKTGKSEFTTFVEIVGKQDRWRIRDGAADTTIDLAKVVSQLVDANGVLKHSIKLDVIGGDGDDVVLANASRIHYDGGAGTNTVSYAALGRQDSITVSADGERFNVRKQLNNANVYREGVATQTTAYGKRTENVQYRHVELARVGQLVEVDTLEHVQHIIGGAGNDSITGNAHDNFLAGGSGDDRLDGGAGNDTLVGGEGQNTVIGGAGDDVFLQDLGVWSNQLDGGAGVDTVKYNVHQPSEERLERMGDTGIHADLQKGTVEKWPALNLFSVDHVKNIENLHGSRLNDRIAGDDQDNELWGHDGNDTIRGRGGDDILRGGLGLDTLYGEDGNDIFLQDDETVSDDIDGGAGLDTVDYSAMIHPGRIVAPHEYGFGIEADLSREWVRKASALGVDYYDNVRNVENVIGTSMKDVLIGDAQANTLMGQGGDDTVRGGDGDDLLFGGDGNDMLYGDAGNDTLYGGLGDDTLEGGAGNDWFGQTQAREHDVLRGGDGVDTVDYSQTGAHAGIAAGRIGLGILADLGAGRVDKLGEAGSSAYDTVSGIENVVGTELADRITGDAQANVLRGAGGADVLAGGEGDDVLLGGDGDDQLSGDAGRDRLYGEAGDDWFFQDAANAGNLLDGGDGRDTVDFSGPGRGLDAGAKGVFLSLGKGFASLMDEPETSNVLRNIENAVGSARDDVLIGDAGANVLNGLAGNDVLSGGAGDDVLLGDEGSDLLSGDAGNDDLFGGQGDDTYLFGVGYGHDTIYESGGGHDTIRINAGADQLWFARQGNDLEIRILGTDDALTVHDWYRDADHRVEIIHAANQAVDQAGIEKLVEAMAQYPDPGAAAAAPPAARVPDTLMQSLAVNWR

B1: M2B10 Fab (Fab, V domains shown)
VH: EVQLQQSGAELVRPGTSVKVSCKASGYAFTNYLIEWVKQRPGQGLEWIGVINPGIGNTNYNEKFKGKATLTADKSSSTVYMQLSSLTSDDSAVYFCARGLNYGSSQHWYFDVWGAGTSVTVSS
VL: IVMTQSPAILSASLGERVTMTCTASSSVSSSYLHWYQQKPGSSPKLWIYSTSNLASGVPARFSGSGSGTSYSLTISSMEAEDAATYYCHQYHRSPPTFGAGTKLEIK
As for B1, the off-rate (koff) was determined as 0.00121 s⁻¹.

B2: M1H5 Fab (Fab, V domains shown)
VH: EVNLVESGGDLVKPGGSLKLSCAASGFTFSSYGMSWVRQTPDKRLEWVATISSGGTYTYYPDSVKGRFTISRDNAKNTLYLQMSSLKSEDTAMYYCAREIMRGGGYYFDYWSQGTTLTVSS
VL: DIQMIQSTSSLSASLGDRVTISCRASQDISNYLNWYQQKPDGTVKLLIYYTSRLHSGVPSRFSGSGSGTDYSLTISNLEQEDIATYFCQQGNTLPYTFGGGTKLEIK
For the molecule B2, the koff turned out to be 0.00102 s⁻¹. The koff values of the last two molecules are within 1.5-fold of each other.

The values are drawn from article PMC8486122 (2021).
